According to article PMC10779317, “Crosstalk between G-Quadruplexes and Dnmt3a-Mediated Methylation of the c-MYC Oncogene Promoter”:

B1: 30Uf/30Df (dsDNA)
DNA 1: CTGAATACTACTTGCGCTCTCTAACCTGAT
DNA 2: ATCAGGTTAGAGAGCGCAAGTAGTATTCAG
B2: 27fG4 (structured_DNA)
DNA: TGGGGAGGGTGGGGAGGGTGGGGAAGG

Columns and labels:
Dnmt3a-CD = Dnmt3a-CD (mouse (murine), UniProt O88508 630-908); experiment: fluorescence polarization; 100 uM AdoHcy; 20 mM HEPES-NaOH pH 7.5, 100 mM KCl, 1 mM EDTA, 1 mM DTT, 100 uM AdoHcy, 10 nM DNA (60 nM for PWWP); FP temperature not stated; methylation competition at 37 C; conditions: protein: recombinant, tags: N-terminal 6xHis, chain copies: 4
M.SssI = M.SssI (UniProt P15840 1-386); experiment: as above; conditions: protein: recombinant; label: 5'-FAM; intramolecular parallel G4
Dnmt3a PWWP domain = Dnmt3a PWWP domain (UniProt O88508 288-346); experiment: fluorescence polarization; 100 uM AdoHcy; 60 nM DNA; 20 mM HEPES-NaOH pH 7.5, 100 mM KCl, 1 mM EDTA, 1 mM DTT, 100 uM AdoHcy, 10 nM DNA (60 nM for PWWP); FP temperature not stated; methylation competition at 37 C; conditions: protein: recombinant; label: 5'-FAM; intramolecular parallel G4

M.SssI, sequence (P15840 whole entry, the tested form may be a part): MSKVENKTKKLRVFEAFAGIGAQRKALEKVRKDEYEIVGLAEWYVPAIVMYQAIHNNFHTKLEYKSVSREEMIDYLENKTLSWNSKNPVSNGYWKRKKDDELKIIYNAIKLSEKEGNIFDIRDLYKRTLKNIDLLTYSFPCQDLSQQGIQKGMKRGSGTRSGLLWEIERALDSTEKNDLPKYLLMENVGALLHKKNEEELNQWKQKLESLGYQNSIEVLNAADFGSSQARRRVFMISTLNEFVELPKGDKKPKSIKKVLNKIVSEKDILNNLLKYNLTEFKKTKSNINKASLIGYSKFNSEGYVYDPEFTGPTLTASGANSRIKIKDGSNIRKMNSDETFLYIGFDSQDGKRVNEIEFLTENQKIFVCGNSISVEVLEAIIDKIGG

Binder	Kd (Dnmt3a-CD; label: 5'-FAM on both strands, blunt)	Kd (M.SssI)	Kd (Dnmt3a-CD; label: 5'-FAM, intramolecular parallel G4)	Kd (Dnmt3a PWWP domain)
B1	220 ± 30 nM			
B2		1200 ± 600 nM	120 ± 30 nM	900 ± 200 nM
